This note sets out measurements from patent US11135246B2, “Peptides and combination of peptides for use in immunotherapy against leukemias and other cancers” (Immatics Biotechnologies GmbH, priority 2017, dated 2021).

The first experiment concerns the target HLA-A*02:01 (Homo sapiens, UniProt P04439, D140Y/D185E/D98H/E176V/E277Q/G131W/G231S/I119V/I121R/I166T/I218V/L300P/L318F/N151K/N90K/P208A/P217A/Q86G/Q94H/R138H/R169H/T345S). Briefly: MHC binding assay, UV-ligand exchange with β2m ELISA, HLA-A*02:01. The following applies: peptide exchange yield. An excerpt: (§1) Candidate peptides for T cell based therapies according to the present invention were further tested for their MHC binding capacity (affinity). The individual peptide-MHC complexes were produced by UV-ligand exchange, where a UV-sensitive peptide is cleaved upon UV-irradiation, and exchanged with the peptide of interest as analyzed. Only peptide candidates that can effectively bind and stabilize the peptide-receptive MHC molecules prevent dissociation of the MHC complexes. To determine the yield of the exchange reaction, an ELISA was performed based on the detection of the light chain (β2m) of stabilized MHC complexes. The assay was performed as generally described in Rodenko et al. (Rodenko et al., 2006).
(§2) 96 well MAXISorp plates (NUNC) were coated over night with 2 ug/ml streptavidin in PBS at room temperature, washed 4× and blocked for 1 h at 37° C. in 2% BSA containing blocking buffer. Refolded HLA-A*02:01/MLA-001 monomers served as standards, covering the range of 15-500 ng/ml. Peptide-MHC monomers of the UV-exchange reaction were diluted 100-fold in blocking buffer. Samples were incubated for 1 h at 37° C., washed four times, incubated with 2 ug/ml HRP conjugated anti-β2m for 1 h at 37° C., washed again and detected with TMB solution that is stopped with […]. Absorption was measured at 450 nm. Candidate peptides that show a high exchange yield (preferably higher than 50%, most preferred higher than 75%) are generally preferred for a generation and production of antibodies or fragments thereof, and/or T cell receptors or fragments thereof, as they show sufficient avidity to the MHC molecules and prevent dissociation of the MHC complexes.
As to “200 (VMLQINPKL; listed as Homo sapiens) [compound 200]”, the Peptide exchange entry was ““+++” (>50 = +++)”.

For “19 (SLFEGIYTI; listed as Homo sapiens) [compound 19]”, the Peptide exchange entry was ““++++” (>75% = ++++)”.

As to “21 (FLFDKLLLI; listed as Homo sapiens) [compound 21]”, the Peptide exchange result is recorded as ““++++” (>75% = ++++)”.

Regarding “197 (SLADVHIEV; listed as Homo sapiens) [compound 197]”, the Peptide exchange result is recorded as ““++++” (>75% = ++++)”.

With “204 (FLLPKVQSIQL; listed as Homo sapiens) [compound 204]”, the Peptide exchange entry is ““+++” (>50 = +++)”.

“25 (YLNEKSLQL; listed as Homo sapiens) [compound 25]”: the Peptide exchange entry is ““++++” (>75% = ++++)”.

In the case of “205 (FLINTNSEL; listed as Homo sapiens) [compound 205]”, the Peptide exchange result is recorded as ““++++” (>75% = ++++)”.

Consider “206 (SLMDLQERL; listed as Homo sapiens) [compound 206]”, for which the Peptide exchange result is recorded as ““+++” (>50 = +++)”.

Regarding “17 (KAYNRVIFV; listed as Homo sapiens) [compound 17]”, the Peptide exchange result is on record as ““+++” (>50 = +++)”.

In the case of “198 (KLLGYDVHV; listed as Homo sapiens) [compound 198]”, the Peptide exchange result was ““+++” (>50 = +++)”.

With “22 (ILHAQTLKI; listed as Homo sapiens) [compound 22]”, the Peptide exchange result is ““+++” (>50 = +++)”.

As for “207 (KLSDNILKL; listed as Homo sapiens) [compound 207]”, the Peptide exchange entry was ““++++” (>75% = ++++)”.

For the substance “201 (ILAAVETRL; listed as Homo sapiens) [compound 201]”, the Peptide exchange entry was ““+++” (>50 = +++)”.

Take “199 (AMPDSPAEV; listed as Homo sapiens) [compound 199]”: the Peptide exchange result is on record as ““++++” (>75% = ++++)”.

On to “27 (RLIAKEMNI; listed as Homo sapiens) [compound 27]”, for which the Peptide exchange result is recorded as ““++++” (>75% = ++++)”.

In the case of “203 (FLLPKVQSI; listed as Homo sapiens) [compound 203]”, the Peptide exchange result is on record as ““++++” (>75% = ++++)”.

Turning to “20 (FSLEDLVRI; listed as Homo sapiens) [compound 20]”, the Peptide exchange result is ““++” (>20% = ++)”.

As to “26 (SLYVQQLKI; listed as Homo sapiens) [compound 26]”, the Peptide exchange entry was ““++++” (>75% = ++++)”.

Regarding “23 (FAFSGVLRA; listed as Homo sapiens) [compound 23]”, the Peptide exchange entry is ““++” (>20% = ++)”.

As to “24 (KLGPVAVSI; listed as Homo sapiens) [compound 24]”, the Peptide exchange result was ““++++” (>75% = ++++)”.

Take “18 (YLLPSVVLL; listed as Homo sapiens) [compound 18]”: the Peptide exchange entry is ““++++” (>75% = ++++)”.

The target of another experiment is HLA-A*24:02 (Homo sapiens, UniProt P04439, D101N/D140Y/D185E/E176V/E190D/F33S/G103R/G107R/I119L/I121M/I306V/K335N/L105A/L180Q/L300P/N151K/N90K/Q86E/Q94H/R106L/R138H/R89G/T104I/T345S/V100E/W191G/Y123F). Briefly: MHC binding assay, UV-ligand exchange with β2m ELISA, HLA-A*24:02. The following applies: peptide exchange yield.
Source text: as §1, §2
On to “64 (SFQSKATVF; listed as Homo sapiens) [compound 64]”, for which the Peptide exchange result is recorded as ““++” (>20% = ++)”.

Regarding “53 (KYIEYYLVL; listed as Homo sapiens) [compound 53]”, the Peptide exchange entry is ““++++” (>75% = ++++)”.

“73 (TYPQLEGFKF; listed as Homo sapiens) [compound 73]”: the Peptide exchange entry is recorded as ““++++” (>75% = ++++)”.

Regarding “74 (SYADNILSF; listed as Homo sapiens) [compound 74]”, the Peptide exchange result was ““++++” (>75% = ++++)”.

As to “55 (IFVARLYYF; listed as Homo sapiens) [compound 55]”, the Peptide exchange result was ““++++” (>75% = ++++)”.

Turning to “63 (IYFSNTHFF; listed as Homo sapiens) [compound 63]”, the Peptide exchange result is listed as ““+++” (>50 = +++)”.

On to “56 (KYSSGFRNI; listed as Homo sapiens) [compound 56]”, for which the Peptide exchange result is given as ““+++” (>50 = +++)”.

For “69 (EYNTIKDKF; listed as Homo sapiens) [compound 69]”, the Peptide exchange result is recorded as ““+++” (>50 = +++)”.

“62 (YYLSHLERI; listed as Homo sapiens) [compound 62]”: the Peptide exchange entry is ““++++” (>75% = ++++)”.

For the substance “67 (VFLPSEGFNF; listed as Homo sapiens) [compound 67]”, the Peptide exchange entry is ““+++” (>50 = +++)”.

As to “58 (KYLADLPTL; listed as Homo sapiens) [compound 58]”, the Peptide exchange result is ““++++” (>75% = ++++)”.

“68 (LYQDRFDYL; listed as Homo sapiens) [compound 68]”: the Peptide exchange entry is ““++++” (>75% = ++++)”.

Consider “72 (TYVENLRLL; listed as Homo sapiens) [compound 72]”, for which the Peptide exchange entry is reported as ““+++” (>50 = +++)”.

For the substance “75 (RFYLLTEHF; listed as Homo sapiens) [compound 75]”, the Peptide exchange result was ““+++” (>50 = +++)”.

Consider “57 (RFPPTPPLF; listed as Homo sapiens) [compound 57]”, for which the Peptide exchange entry is listed as ““++++” (>75% = ++++)”.

Regarding “61 (IFKEHNFSF; listed as Homo sapiens) [compound 61]”, the Peptide exchange entry is recorded as ““++++” (>75% = ++++)”.

Turning to “71 (RYLGKNWSF; listed as Homo sapiens) [compound 71]”, the Peptide exchange result is recorded as ““++++” (>75% = ++++)”.

Turning to “222 (RYLDEINLL; listed as Homo sapiens) [compound 222]”, the Peptide exchange result is recorded as ““+++” (>50 = +++)”.

As to “70 (LYSDIGHLL; listed as Homo sapiens) [compound 70]”, the Peptide exchange entry is given as ““+++” (>50 = +++)”.

For the next experiment, the target named is HLA-A*01:01 (Homo sapiens, UniProt P04439, A114D/A174V/A182V/D101N/D185E/E176A/E190D/L180R/Q94H/R68K/S129P/T187R/V100A/V91M/W191G). Briefly: MHC binding assay, UV-ligand exchange with β2m ELISA, HLA-A*01:01. Conditions: peptide exchange yield.
Source text: as §1, §2
As for “7 (FMDSESFYY; listed as Homo sapiens) [compound 7]”, the Peptide exchange result is ““+” (>10% = +)”.

In the case of “191 (ISEAGKDLLY; listed as Homo sapiens) [compound 191]”, the Peptide exchange result is recorded as ““+++” (>50 =+++)”.

For the substance “6 (VTEGVAQTSFY; listed as Homo sapiens) [compound 6]”, the Peptide exchange entry is given as ““++++” (>75% = ++++)”.

For “10 (YSDIGHLL; listed as Homo sapiens) [compound 10]”, the Peptide exchange entry was ““++” (>20% = ++)”.

As to “193 (LTDSEKGNSY; listed as Homo sapiens) [compound 193]”, the Peptide exchange result is reported as ““+++” (>50 =+++)”.

As to “190 (HVDQDLTTY; listed as Homo sapiens) [compound 190]”, the Peptide exchange entry is on record as ““++” (>20% = ++)”.

Turning to “4 (ALDQNKMHY; listed as Homo sapiens) [compound 4]”, the Peptide exchange result is reported as ““+++” (>50 =+++)”.

Consider “5 (GTDVLSTRY; listed as Homo sapiens) [compound 5]”, for which the Peptide exchange entry is ““+++” (>50 =+++)”.

On to “12 (ATDIVDSQY; listed as Homo sapiens) [compound 12]”, for which the Peptide exchange entry is ““+++” (>50 =+++)”.

As to “194 (YTDKKSIIY; listed as Homo sapiens) [compound 194]”, the Peptide exchange entry is recorded as ““+++” (>50 =+++)”.

Regarding “13 (ITDIHIKY; listed as Homo sapiens) [compound 13]”, the Peptide exchange entry is given as ““++++” (>75% = ++++)”.

Consider “16 (WIGDKSFEY; listed as Homo sapiens) [compound 16]”, for which the Peptide exchange entry is given as ““++” (>20% = ++)”.

For the substance “195 (YSDKEFAGSY; listed as Homo sapiens) [compound 195]”, the Peptide exchange result is reported as ““++++” (>75% = ++++)”.

Take “14 (TFDLTVVSY; listed as Homo sapiens) [compound 14]”: the Peptide exchange entry is on record as ““++” (>20% = ++)”.

For “188 (YVDAGTPMY; listed as Homo sapiens) [compound 188]”, the Peptide exchange result was ““+++” (>50 =+++)”.

In the case of “8 (STDSAGSSY; listed as Homo sapiens) [compound 8]”, the Peptide exchange entry is given as ““++++” (>75% = ++++)”.

Consider “9 (YSHPQYSSY; listed as Homo sapiens) [compound 9]”, for which the Peptide exchange result is recorded as ““++” (>20% = ++)”.
